Reference: US20210017281A1 (IMMUNEXT, published 2021)

Target: T1, human VISTA (human, UniProt Q9H7M9 33-194, limits assumed)
T1 construct: The ELISA text says only recombinant VISTA; also called recombinant VISTA
Test: method not stated (Table 1, column Kd, M)

Binder	Kd [nM]
INX901 | VSTB56 (antibody, V domains shown, INX name = the VSTB variable regions with native human IgG2 constant regions; also called INX901 parental) VH: QVQLVQSGAEVKKPGASVKVSCKASGYTFTSYWLHWVRQAPGQGLEWMGYIIPNTLHTDYNQKFKDRVTMTRDTSTSTVYMELSSLRSEDTAVYYCARLDGDYDYALDYWGQGTLVTVSS VL: DIVMTQTPLSLSVTPGQPASISCRASESVEYYGTSFMQWYLQKPGQPPQLLIYTASNVESGVPDRFSGSGSGTDFTLKISRVEAEDVGVYYCQQSRKVPYTFGQGTKLEIK	0.0235
INX902 | VSTB63 (antibody, V domains shown, INX name = the VSTB variable regions with human IgG2 constant regions) VH: QVQLQESGPGLVKPSETLSLTCAVSGFSITSDFAWNWIRQPPGKGLEWIGYITYSGFTNYNPSLESRVTISVDTSKNQFSLKLSSVTAADTAVYYCARQEYGNYVWYFDVWGQGTLVTVSS VL: DIVMTQTPLSLSVTPGQPASISCRASESVEYYGTSLLQWYLQKPGQPPQLLIYAASNVESGVPDRFSGSGSGTDFTLKISRVEAEDVGVYYCQQSRKVPWTFGQGTKLEIK	0.83
INX906 | VSTB54 (antibody, V domains shown, INX name = the VSTB variable regions with human IgG2 constant regions) VH: QVQLVQSGAEVKKPGASVKVSCKASGYNIKDTYMHWVRQAPGQGLEWMGRIDPTHGYVIYDPKFQGRVTMTRDTSTSTVYMELSSLRSEDTAVYYCARDRFDPYWFLDVWGQGTLVTVSS VL: DIVMTQTPLSLSVTPGQPASISCRASESVEYYGTSLMQWYLQKPGQSPQLLIYDAFNVESGVPDRFSGSGSGTDFTLKISRVEAEDVGVYYCQQSRKVPWTFGQGTKLEIK	0.0253
VSTB60 (antibody, V domains shown) VH: QVQLVQSGSELKKPGASVKVSCKASGYTFTNYGMTWVRQAPGQGLEWMGWINTYTGESTYADDFKGRFVFSLDTSVSTAYLQICSLKAEDTAVYYCARDYYGIYVSAYWGQGTLVTVSS VL: DIVMTQTPLSLSVTPGQPASISCRASESVDNYANSFMHWYLQKPGQSPQLLIYRASNLESGVPDRFSGSGSGTDFTLKISRVEAEDVGVYYCQQSHEDPYTFGQGTKLEIKR	0.356
INX900 | VSTB50 (antibody, V domains shown, INX name = the VSTB variable regions with human IgG2 constant regions) VH: QVQLVQSGSELKKPGASVKVSCKASGYTFTNYGLNWVRQAPGQGLEWMGWINPYTGEPTYADDFKGRFVFSLDTSVSTAYLQICSLKAEDTAVYYCAREGYGNYIFPYWGQGTLVTVSS VL: DIVMTQTPLSLSVTPGQPASISCRASESVDTYANSLMHWYLQKPGQPPQLLIYRASNLESGVPDRFSGSGSGTDFTLKISRVEAEDVGVYYCQQTNEDPRTFGQGTKLEIK	0.632
VSTB74 (antibody, V domains shown) VH: QMQLVQSGPEVKKPGTSVKVSCKASGYIFTDYNIDWVRQARGQRLEWIGDINPKYDSTRYNQKFKGRVTITRDMSTSTAYMELSSLRSEDTAVYYCAADGSSAMDYWGQGTTVTVSS VL: DIVMTQSPDSLAVSLGERATINCKSSQSLLNSGHQKNYLAWYQQKPGQPPKLLIYGASTRESGVPDRFSGSGSGTDFTLTISSLQAEDVAVYYCQNDHRYPLTFGQGTKLEIKR	0.562
INX907 | VSTB66 (antibody, V domains shown, INX name = the VSTB variable regions with human IgG2 constant regions) VH: QVQLVQSGAEVKKPGASVKVSCKASGYPFTGYFMHWVRQAPGQGLEWMGRINPYNGGTVYNQNFNDRVTMTRDTSTSTVYMELSSLRSEDTAVYYCARWTFDGLFMDYWGQGTTVTVSS VL: DVVMTQSPLSLPVTLGQPASISCRASENVDKYGISFMNWFQQRPGQSPRRLIYATSNQGSGVPDRFSGSGSGTDFTLKISRVEAEDVGVYYCQQSKEDPYTFGQGTKLEIK	0.0806
VSTB78 (antibody, V domains shown) VH: QVQLVQSGAEVKKPGASVKVSCKASGYTFTNYWMHWVRQAPGQGLEWMGYINPSSGYTEYNQKFKDRVTMTRDTSTSTVYMELSSLRSEDTAVYYCARDGGSVLFGYWGQGTTVTVSS VL: DIVMTQSPDSLAVSLGERATINCKSSQSLLNSGIRKNYLAWYQQKPGQPPKLLIYSASTRESGVPDRFSGSGSGTDFTLTISSLQAEDVAVYYCKQSYNLYTFGQGTKLEIKR	1.13
